Publication PMC10844744, “C9orf72-associated dipeptide protein repeats form A11-positive oligomers in amyotrophic lateral sclerosis and frontotemporal dementia” (The Journal of Biological Chemistry, 2024)

Molecular target: the molecule itself
Test: far-Western, overlay or dot blot; monomeric 12-repeat DPRs seeded with brain-derived DPRs at 1:70 M ratio (seed to monomer), orbital shaker, 37 °C, 72 h; oligomerization confirmed by dot blot

| Protein | binding result |
| --- | --- |
| PRPRPRPRPRPRPRPRPRPRPRPR (source: synthetic peptide (Scenic Biotech)) [proline–arginine dipeptide protein repeat, 12 repeats (PR12)] | binds |
| GRGRGRGRGRGRGRGRGRGRGRGR (source: synthetic peptide (Scenic Biotech)) [glycine–arginine dipeptide protein repeat, 12 repeats (GR12)] | binds |
| GAGAGAGAGAGAGAGAGAGAGAGA (source: synthetic peptide (Scenic Biotech)) [glycine–alanine dipeptide protein repeat, 12 repeats (GA12)] | binds |

Molecular target: the molecule itself
Test: far-Western, overlay or dot blot; synthetic DPRs gently stirred in 1x PBS for 6 days, aliquots at days 1, 2, 4 and 6; 1 ul of 1 mg/ml dotted on nitrocellulose; oligomers read out with oligomer-specific antibody A11-19 (1:8000), fibrillar aggregates with OC (1:10,000)

| Protein | binding result |
| --- | --- |
| GRGRGRGRGRGR (source: synthetic peptide (Scenic Biotech)) [glycine–arginine dipeptide protein repeat, 6 repeats (GR6)] | binds |
| GAGAGA (source: synthetic peptide (Scenic Biotech)) [glycine–alanine dipeptide protein repeat, 3 repeats (GA3)] | binds |
| GAGAGAGAGAGA (source: synthetic peptide (Scenic Biotech)) [glycine–alanine dipeptide protein repeat, 6 repeats (GA6)] | binds |
| PRPRPR (source: synthetic peptide (Scenic Biotech)) [proline–arginine dipeptide protein repeat, 3 repeats (PR3)] | binds |
| PRPRPRPRPRPR (source: synthetic peptide (Scenic Biotech)) [proline–arginine dipeptide protein repeat, 6 repeats (PR6)] | binds |
| GRGRGR (source: synthetic peptide (Scenic Biotech)) [glycine–arginine dipeptide protein repeat, 3 repeats (GR3)] | binds |
